Measurements taken from paper PMC6219380.

Molecular target: SgcC5 (unlabelled) (Streptomyces globisporus)
Assay: SEC

How did the stoichiometry N turn out when SgcC5 (unlabelled) (enzyme) was run?
Its stoichiometry N is 2.
